Data: patent US20140057807A1 (UNIVERSITY OF CHICAGO, published 2014)
Changes are numbered by the printed parent chain.

Columns and labels:
[1] = target: T1, yeast small ubiquitin-like modifier protein (yeast, UniProt Q12306 3-98 = SUMO); test: SPR; column 'Estimated Kd (nM)' [Continued]
T1 construct: GST fusion in most phage ELISAs, His-tagged or tag-cleaved elsewhere; also called ySUMO; yeast SUMO
Method in brief: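 Purified His-tagged molecules were captured on an NTA surface of a Biacore 2000 to reach a theoretical maximum target response of 100-200 RU, and target at varying concentrations was flowed at 30 μL/min. Estimated Kd values come from surface plasmon resonance binding signals, analysed either by kinetic fitting in BIAevaluation software or by fitting equilibrium responses to a saturation binding curve with 1:1 binding.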

human Abl SH2 domain [2] = target: T2, human Abl SH2 domain (human, UniProt P00519 112-232, limits assumed); test: method not given
T2 construct: domain: SH2 domain; poly-histidine tagged in selection; tag cleaved for SPR and crystals; also called Ab1SH2; SH2 domain of Abl kinase
T2 sequence (looked up): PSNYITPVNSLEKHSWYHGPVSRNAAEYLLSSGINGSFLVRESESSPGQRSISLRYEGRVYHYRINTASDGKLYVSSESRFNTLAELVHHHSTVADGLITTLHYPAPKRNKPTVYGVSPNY

human Abl SH2 domain [3] = target: T2, human Abl SH2 domain; test: Kd (nM) column of the drawn table; the method for this clone is not stated (SH13 came directly from the phage display library)
[4] = target: T1, yeast small ubiquitin-like modifier …; test: titration phage ELISA: His-tagged target captured via BT-Tris-NTA on NeutrAvidin-coated wells, serial 5-fold dilutions of phage supernatant
Method in brief: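 Phage ELISA with phage-containing supernatant from XL21 cells grown with 0.2 mM IPTG and helper phage K07. His-tagged target (50 nM) was complexed with BT-Tris NTA on NeutrAvidin-coated, BSA-blocked wells for 30 minutes. A 30% phage supernatant and serial 5-fold dilutions in TBS/0.5% BSA were incubated for 30 minutes at room temperature. Detection used anti-M13-HRP and TMB, quenched with H₂SO₄, with absorbance at 450 nm scaled to 1 cm path-length.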

[5] = target: T1, yeast small ubiquitin-like modifier …; test: titration phage ELISA
Procedure: hSUMO1-binding cradle molecules had varied ability to discriminate hSUMO1 and ySUMO as assessed by phage ELISA (FIGS. 25A and 26A).
For phage amplification, E. coli XL1-Blue cells transformed with the LacI containing plasmid pMCSG21 (Stols, et al., Protein Express. Purif. (2007) 53:396-403) (termed “XL21” hereafter) were used. Cradle molecule displaying phage were prepared by growing XL21 cells transfected with phagemid of individual clones in the presence of 0.2 mM IPTG and helper phage K07 (Koide, A., and Koide, S., supra, 2007; Sidhu, et al., supra, 2000). Cultures were then centrifuged and phage containing supernatant used for ELISA assays. All incubations were at room temperature. In all instances except for the phage titration experiment used to test hSUMO1-binding cradle molecule specificity (FIG. 26), wells of a 96-well Microlon© (Greiner) ELISA plate were treated with a 2 μg/mL solution of a GST-fusion of the appropriate target protein, or GST alone in 50 mM Tris Cl buffer containing 150 mM NaCl, pH 7.5 (TBS) and incubated for 1 hour followed by blocking with 0.5% BSA in TBS for 1 hour.

[6] = target: T1, yeast small ubiquitin-like modifier …; test: SPR (Biacore 2000), monobody immobilised via His-tag on NTA surface, ySUMO flowed over it
Procedure: (§1) Cradle molecules purified as described above were immobilized via His-tag to an NTA surface using a Biacore™ 2000 instrument so that the theoretical maximum response (Rₘₐₓ) from target binding was 100-200 RU. Target protein at varying concentrations was then flowed over the surface at a flow rate of 30 μL/min and the binding signal recorded. Fitting of kinetic traces was carried out using the BIAevaluation software. For equilibrium experiments, the equilibrium binding response was recorded for multiple target concentrations and fit to a simple 1:1 saturation binding curve.

[7] = target: T1, yeast small ubiquitin-like modifier …; test: SPR
From the text: Such high selectivity was unexpected, because the SIM-binding site is the most highly conserved surface between ySUMO and hSUMO proteins (FIG. 16A). […] Thus, it was expected that generating FnIII domain variants that bind to hSUMOs in a mode similar to the ySUMO-binding FnIII domain variants would yield clones with higher isoform selectivity toward hSUMOs.
as §1

[8] = target: T1, yeast small ubiquitin-like modifier …; test: SPR (monobody on the chip via His-tag, target flowed); estimated Kd
Procedure: as §1

[9] = target: T1, yeast small ubiquitin-like modifier …; test: SPR, fit of the traces to a 1:1 binding model [panel D]
Procedure: as §1

T1 sequence (Q12306 3-98 limits assumed): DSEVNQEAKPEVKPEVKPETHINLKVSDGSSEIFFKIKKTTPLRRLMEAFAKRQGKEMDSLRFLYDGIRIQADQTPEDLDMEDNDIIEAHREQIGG

B1: ySMB-54 (designed binder)
chain: VSSVPTKLEVVAATPTSLLISWDAGYDESVMYYRITYGETGGNSPVQEFTVPGSSSTATISGLSPGVDYTITVYAYREYDGLYYSYSPISINYRT
notes: variable loops only; library YSGW
[1]
  Kd: 950 nM

B2: ySMB-53 (designed binder)
chain: VSSVPTKLEVVAATPTSLLISWDASSSSVSYYRITYGETGGNSPVQEFTVPGSSSTATISGLSPGVDYTITVYAYQSFGYNEYWSSGSPISINYRT
notes: as for B1
[1]
  Kd: 380 nM

B3: SH13 (designed binder)
chain: VSSVPTKLEVVAATPTSLLISWDAPAVDFYVYLITYGETGGNSPVQEFTVPGSKSTATISGLSPGVDYTITVYGYSDSWNWPYSPISINYRT
notes: also called SH13 monobody
Human Abl SH2 domain [2]
  Kd: ~4000 nM
Human Abl SH2 domain [3]
  Kd: 6800 nM

B4: hS1MB-7 (designed binder)
chain: VSSVPTKLEVVAATPTSLLISWDASSSSVSYYEITYGETGGNSPVQEFTVPGSSSTATISGLSPGVDYTITVIAFYSHDDIYISDSPSSINYRT
[4]
  binding result: no binding
[5]
  fold weaker binding to ySUMO than to hSUMO1: ≥ 100 fold

B5: hS1MB-23 (designed binder)
chain: B4 chain with Y31H, I73Y, F75Y, Y82F, I83Y, S84A, D85F
[5]
  fold weaker binding to ySUMO than to hSUMO1: ≥ 100 fold

B6: hS1MB-16 (designed binder)
chain: B4 chain with Y31H, E33D, I73Y, F75Y, Y76N, Y82F, S84A, D85Y
[5]
  fold weaker binding to ySUMO than to hSUMO1: ≥ 100 fold

B7: ySMB-1 (designed binder)
chain: B4 chain with E33R, I73Y, F75Y, H78Y, D79Y, I81L, I83Y, D85Y
notes: it may hold only the diversified positions and not the whole FnIII domain; BC and DE loops are polyserine; also called monobody ySMB-1; FnIII domain variant ySMB-1
[6]
  Kd: 72 nM
[7]
  Kd: 82 nM
[8]
  Kd: 72 nM
[9]
  koff: 0.09 s⁻¹
  kon: 1.1e+06 M⁻¹ s⁻¹
